Reference: patent US20220098269A1 (IMMATICS BIOTECHNOLOGIES, published 2022)

Target: T1, HLA-A*01:01 (human)
T1 construct: Peptide-receptive MHC class I monomer after UV cleavage of a UV-sensitive ligand; captured on streptavidin plates, detected with anti-b2m
Assay: UV-ligand exchange, anti-b2m ELISA; peptide exchange yield grade
From the text: (§1) Candidate peptides for T cell based therapies according to the present invention were further tested for their MHC binding capacity (affinity). The individual peptide-MHC complexes were produced by UV-ligand exchange, where a UV-sensitive peptide is cleaved upon UV-irradiation and exchanged with the peptide of interest as analyzed. Only peptide candidates that can effectively bind and stabilize the peptide-receptive MHC molecules prevent dissociation of the MHC complexes. To determine the yield of the exchange reaction, an ELISA was performed based on the detection of the light chain (β2m) of stabilized MHC complexes. The assay was performed as generally described in Rodenko et al. (Rodenko et al., 2006).
(§2) 96 well MAXISorp plates (NUNC) were coated over night with 2 μg/ml streptavidin in PBS at room temperature, washed 4× and blocked for 1h at 37° C. in 2% BSA containing blocking buffer. Refolded HLA-A*02:01/MLA-001 monomers served as standards, covering the range of 15-500 ng/ml. Peptide-MHC monomers of the UV-exchange reaction were diluted 100-fold in blocking buffer. Samples were incubated for 1 h at 37° C., washed four times, incubated with 2 μg/ml HRP conjugated anti-β2m for 1h at 37° C., washed again and detected with TMB solution that is stopped with […]. Absorption was measured at 450 nm. Candidate peptides that show a high exchange yield (preferably higher than 50%, most preferred higher than 75%) are generally preferred for a generation and production of antibodies or fragments thereof, and/or T cell receptors or fragments thereof, as they show sufficient avidity to the MHC molecules and prevent dissociation of the MHC complexes.

Binder | peptide exchange yield
ISDITEKNSGLY | ≥ 75%
HVKDATMGY | 50 to 75%
TFVDASRTLY | ≥ 75%
FTDTSSYEY | ≥ 75%
VTDVTEEHY | ≥ 75%
RSLDCTVKTY | 50 to 75%
VTQDDTGFY | ≥ 75%
LTNDQTLRL | 50 to 75%
GTDKQDSTLRY | ≥ 75%
ILPDITTTY | 20 to 50%
WLDRSTILY | ≥ 75%
GVDDTSLLY | ≥ 75%
TSDTSQYDTY | 50 to 75%
VTETMGIDGSAY | ≥ 75%
YIDDVTLI | 20 to 50%
HVSDVTVNY | 20 to 50%
GTDQTGKGLEY | 50 to 75%
HVDNSNLNY | ≥ 75%
VTRDDTASY | 20 to 50%
EVQDHSTSSY | 20 to 50%
MTDVDRDGTTAY | ≥ 75%

Binder | peptide exchange yield
NHITDTSLNLF | 20 to 50%
QVDGSLLVI | 20 to 50%
PSDGSMHNY | ≥ 75%
ITDTSLNLF | ≥ 75%
LSDLTCNNY | ≥ 75%
WSDWSNPAY | ≥ 75%
LSDLSLADI | 20 to 50%
ISDGMDSSAHY | ≥ 75%
GQYDDSLQAY | 20 to 50%
EVEGVIDGTYDY | ≥ 75%
FTDLITDESINY | ≥ 75%
ILFSDSTRLSF | 50 to 75%
TANYDTSHY | 20 to 50%
RVDDITDQF | 20 to 50%
RSIDVTGQGF | 20 to 50%
ITDDTVQTY | ≥ 75%
YSIDVTNVM | 50 to 75%
PSDLSVFTSY | ≥ 75%
LTEVEKDATALY | ≥ 75%
HADLTTLTF | 20 to 50%

Target: T2, HLA-A*24:02 (human)
T2 construct: Peptide-receptive MHC class I monomer after UV cleavage of a UV-sensitive ligand
Assay: as above
From the text: as §1, §2

Binder | peptide exchange yield
FYDLSIQSF | ≥ 75%
FFQDSTFSF | ≥ 75%
QAIDLSLNF | 20 to 50%
YWDETLKEF | 50 to 75%
NYLLYVSDF | ≥ 75%
GYIDDVTLI | 50 to 75%
VFHDHTYHL | ≥ 75%
YFVDVTTRI | 50 to 75%
IFDETGRF | 20 to 50%
YHDQTISF | 10 to 20%
QYQDTTVSF | 50 to 75%
FHYDDTAGYF | 10 to 20%
FFTDKTLSF | ≥ 75%
SYDETKIKF | 10 to 20%
IYPDASLLIQNI | ≥ 75%
FYDNSVIIF | 20 to 50%
VYTDISHHF | ≥ 75%
KSYHDQTISF | ≥ 75%
VHDFTLPSW | 20 to 50%
KLTDNSNQF | 20 to 50%
VFDETKNLL | 20 to 50%
IYNFRLWDF | ≥ 75%
TYLPTDASLSF | ≥ 75%
IYQFARLDY | 20 to 50%
IYLDRTLLTTI | ≥ 75%
